Tests used:
[1] = target: T1, membrane IL-6R on BAF/gp130/IL6R/TNF cells (Homo sapiens) (UniProt P08887); assay: flow cytometry
T1 sequence: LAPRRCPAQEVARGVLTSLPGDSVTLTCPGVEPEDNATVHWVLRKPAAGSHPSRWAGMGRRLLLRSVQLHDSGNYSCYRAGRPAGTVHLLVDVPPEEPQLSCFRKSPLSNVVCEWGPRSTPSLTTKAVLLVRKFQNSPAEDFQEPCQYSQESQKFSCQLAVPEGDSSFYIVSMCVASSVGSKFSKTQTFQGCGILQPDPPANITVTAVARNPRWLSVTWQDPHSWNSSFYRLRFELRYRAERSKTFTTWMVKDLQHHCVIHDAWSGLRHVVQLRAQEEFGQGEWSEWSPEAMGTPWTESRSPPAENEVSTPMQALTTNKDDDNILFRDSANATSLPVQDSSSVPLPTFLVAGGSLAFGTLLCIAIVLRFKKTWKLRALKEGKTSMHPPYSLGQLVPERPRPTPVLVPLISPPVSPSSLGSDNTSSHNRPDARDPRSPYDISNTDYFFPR

[2] = target: T2, Hyper-IL-6 (IL-6 and sIL-6R fusion, flexible linker) (Homo sapiens, UniProt P08887 113-323+P05231:29-212, internal_change); assay: filter binding
[3] = target: T2, Hyper-IL-6 (IL-6 and sIL-6R fusion, …); assay: filter binding; remark: listed apart in the source

With GGGGAGGCUGUGGUGAGGG [AIR-3A Atto647N] the Kd [1] was 8.5 nM.

GGGGAGGCUGUGGUGAGUG (ssRNA) [G18U]: no binding [2].

GGGGAGGCUGUGGUGAUUG (ssRNA) [G17U/G18U]: no binding [2].

With GGGGAGGCUGUGGUGAGGG (structured_RNA) [AIR-3A] the Kd [3] was 60.4 ± 16 nM.

GGGGAGGCUGUGGUGAUGG (ssRNA) [G17U]: no binding [2].

Source: article PMC3342945
